Test: cycloheximide chase, Western blot, Hepa1A
Details: glycan lost; control: wild type

B1: ERManI: ERManIO-def (protein)
parent chain: MAACEGRRSGALGSSQSDFLTPPVGGAPWAVATTVVMYPPPPPPPHRDFISVTLSFGENYDNSKSWRRRSCWRKWKQLSRLQRNMILFLLAFLLFCGLLFYINLADHWKALAFRLEEEQKMRPEIAGLKPANPPVLPAPQKADTDPENLPEISSQKTQRHIQRGPPHLQIRPPSQDLKDGTQEEATKRQEAPVDPRPEGDPQRTVISWRGAVIEPEQGTELPSRRAEVPTKPPLPPARTQGTPVHLNYRQKGVIDVFLHAWKGYRKFAWGHDELKPVSRSFSEWFGLGLTLIDALDTMWILGLRKEFEEARKWVSKKLHFEKDVDVNLFESTIRILGGLLSAYHLSGDSLFLRKAEDFGNRLMPAFRTPSKIPYSDVNIGTGVAHPPRWTSDSTVAEVTSIQLEFRELSRLTGDKKFQEAVEKVTQHIHGLSGKKDGLVPMFINTHSGLFTHLGVFTLGARADSYYEYLLKQWIQGGKQETQLLEDYVEAIEGVRTHLLRHSEPSKLTFVGELAHGRFSAKMDHLVCFLPGTLALGVYHGLPASHMELAQELMETCYQMNRQMETGLSPEIVHFNLYPQPGRRDVEVKPADRHNLLRPETVESLFYLYRVTGDRKYQDWGWEILQSFSRFTRVPSGGYSSINNVQDPQKPEPRDKMESFFLGETLKYLFLLFSDDPNLLSLDAYVFNTEAHPLPIWTPA
Question: With B1 as the protein, how does the degradation_or_half_life read?
Answer: Its degradation_or_half_life is “no change”.
